Measured values: the nanobody polyreactivity screen of Harvey et al. (2022)

assay: yeast display, Sf9 membrane polyspecificity reagent, FACS + sequencing; frameworks hold sequencing errors
Method in brief: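 Galactose induction of a Saccharomyces cerevisiae BJ5465 synthetic nanobody display library ran 36–48 hours. The cells were then stained for 1 hour at 4 °C with 10% biotinylated, detergent-solubilized Sf9 membrane reagent, pulled down on streptavidin microbeads and FACS-sorted into low and high (top ~1%) gates on expression and reagent-binding fluorescence. Labels for polyreactivity follow the gate of origin.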

Sequence | polyreactivity (PSR sort gate)
QVQLVESGGGLVQAGGSLRLSCAASGRIFLGYAMGWYRQAPGKERELVAAISAGGGSTYYADSVKGRFTISRDTAKNTVYLLMNSLKPEDTAVYYCAARRPHIPVKTYDYWGQGTQVTVSS | high polyreactivity
QVQLVESGGGLVQAGGSLRLSCAASGRIFLGYTMGWYIQAPGKERELVAAISYTGGSTYYADSVKGRFTISRDNAKNSVYLQMNSLKPEDTAVYYCAAGTRFSYYWGQGTQLTVSS | high polyreactivity
QVQLVESGGGLVQAGGSLRLSCAASGRIFLINAMGWYRQAPGKERELVAAITGGGGSTYYADSVKGRFTISRDNAKNTVYLQMNSLKPEDTAVYYCAARGTAERDYWGQGTQVTVSS | high polyreactivity
QVQLVESGGGLVQAGGSLRLSCAASGRIFLKYAMGWYRQAPGKERELVAAISSSGGSTYYADSVKGRFTISRDNAMNTVYLQMNSLKPEDTAVYYCNALYKRGSSYFIGDGYWGQGTQVTVSS | high polyreactivity
QVQLVESGGGLVQAGGSLRLSCAASGRIFLRNAMGWYRQAPGNERELVATITSRGGSTYYADSVKGRFTISRDNAKNTVYLQMNSLKPEDTAVYYSAADPSRYRSFGYVYGGYYYWGQGTQVTVSS | low polyreactivity
QVQLVESGGGLVQAGGSLRLSCAASGRIFLRNAMGWYRQEPGKERELVASIDRSGGSTYYADSVKGRFTISRDNAKNTVFLQMNSLKPEDTAVYYCAAAYWYLYYYWGQGTQVTVSS | low polyreactivity
QVQLVESGGGLVQAGGSLRLSCAASGRIFLSNAMGWYRQAPGKERELVASITSGGSTNYADSVKGRFTISRDNAKNTVYLQMNSLKPEDTAVYYCAKRYRHSGYFVGFNYWGQGTQVTVSS | high polyreactivity
QVQLVESGGGLVQAGGSLRLSCAASGRIFLSYTMGSYRQAPGKERELVAAISRGGRTYYADSVKGRFTISLDNAKNTVYLQMNSLKPEDTAVYYCAKKYGRYGSLRGRTIDDYWGQGTEVTVSS | low polyreactivity
QVQLVESGGGLVQAGGSLRLSCAASGRIFLTNAMGWYRQAPGKERELVADITSGGATYYADSVKGRFTISRDNAKNSVYLQMNSLKPVDTAVYYCNADTDRYWPYEYDYWGQGSQVTVSS | low polyreactivity
QVQLVESGGGLVQAGGSLRLSCAASGRIFLVNAMGWYRQAPGKERELVAAINFISGSTYYADSVKGRFTISRDNAKNTVYLQMNSLKPEDTAVYYCAAYSYWSYVQRYKLEYDYWGQGTQVTVSS | low polyreactivity
QVQLVESGGGLVQAGGSLRLSCAASGRIFLWYAMGWYRQAPGKERELVAAISRTGGSTYYADSVKGRFTISRDNAKNTVYLQMNSLKPEDTAVYFCAAYHSYKTSWPQSGYWGQGTQVTVSS | high polyreactivity
QVQLVESGGGLVQAGGSLRLSCAASGRIFLWYAMGWYRQAPGKERELVAAISSGGSTIYADSVKGRFTISRDNAKNTVYLQMNSLKPEDTAVNYCAAFPTQRRHPLVGFNSWGQGTQVTVSS | high polyreactivity
QVQLVESGGGLVQAGGSLRLSCAASGRIFLWYAMGWYRQAPGKERELVAAISSNGGSTRYADSVKGRFTFSRDNAKNTVYLQMNSLKPEDTAVYYCNADVHWNRYPYGGNGYGYWGQGTQVTVSS | low polyreactivity
QVQLVESGGGLVQAGGSLRLSCAASGRIFLWYAMGWYRQAPGKERELVAGISSGASTYYADSVKGRFTISRDNAKNTVYLQMNSLKPEDTAVYYCAAPYYRLTGWSRYDYWGQGTQVTVSS | high polyreactivity
QVQLVESGGGLVQAGGSLRLSCAASGRIFLYYAMGWYRQAPGKERELVAAISFRGGSTYYADSVKGRFTISRDNAKNTVYLQMNSLKPEDTAVYYCNAVRDWGPSQVYDGMDYWGQGTQVTVSS | low polyreactivity
QVQLVESGGGLVQAGGSLRLSCAASGRIFLYYAMGWYRQAPGKERELVAAISSGGSTYYADSVKGRFTISRDNAKNTVYLQMNSLKPEDTAVYYCATPSGRWGHYGYWGQGTQVTVSS | low polyreactivity
QVQLVESGGGLVQAGGSLRLSCAASGRIFLYYAMGWYRQAPGKERELVAAITSSGGDTYYADSVKGRFTISRDNANNTVYLQMYSLKPEDTAVYYCAAYSWWNEYDYWGQGTQVTVSS | high polyreactivity
QVQLVESGGGLVQAGGSLRLSCAASGRIFLYYAMGWYRQAPGKERELVAAITSSGGGTYYADSVKGRFTISRDNAKNTVYLQMNSLKPEDTAVYYCAARRRSQWRYYYWGQGTQVTVSS | high polyreactivity
QVQLVESGGGLVQAGGSLRLSCAASGRIFLYYTMGWYRQATWKERELVAAITRSGGSTYYADSVKGRFTISRDNAKNTVYLQMNSLKPEDTAVYYCNRAYVRYVPMNYWGQGTQVTVSS | high polyreactivity
QVQLVESGGGLVQAGGSLRLSCAASGRIFNAYAMGWYRQAPGKERELVASISWSGGSTFYADSVKGRFTISRDNAKNTVYLQMNSLKPEDTAVYYCNADRRSSRHWWSITAYEYWGQGTQVTVSS | high polyreactivity
QVQLVESGGGLVQAGGSLRLSCAASGRIFNDYAMGWSRQAPGKERELVAVIRRSGVSTYYADSVKGRFTISRDNAKNTVYLQMNSLKPEDTAVYYCAAYGYWGQGTQVTVSS | low polyreactivity

Sequence | polyreactivity (PSR sort gate)
QVQLVESGGGLVQAGGSLRLSCAASGRIFNGNAMGWYRQAPGNERELVAAISGSGGSTYYADSVKGRFTISRDNAKNTVYLQMNSLKPEDTAVYYCATKRVVHYNYWGQGTQVTVSS | high polyreactivity
QVQLVESGGGLVQAGGSLRLSCAASGRIFNGYAMGWYRQAPGKERELVAAINSSGGSTYYADSVKGRFTISRDNAKNTVFLQMNSLKPEDTAVYYCARVSYHYRTYDYWGQGTQVTVSS | high polyreactivity
QVQLVESGGGLVQAGGSLRLSCAASGRIFNGYAMGWYRQAPGKERELVAAISVSGGSTYYADSVKGRFTISRDNAKNTVYLQMNSLKPEDTAVYYCAARTSSYSFPYAYNYWGQGTQVTVSS | high polyreactivity
QVQLVESGGGLVQAGGSLRLSCAASGRIFNGYAMGWYRQAPGKERELVARISKRGGRTYYADSVKGRFTISRDNAKNTVYLQMNSLKPEDTAVYYCNAVPRVTRPSAVEEYDYWGQGTQVTVSS | high polyreactivity
QVQLVESGGGLVQAGGSLRLSCAASGRIFNKNAMGWYRQAPGKERELVAAITYSGGSTYYADSVKGRFTISRDNAKNTVYLQMNSLKPEDTAVYYCARDLYYVYSFAPYRYEYWGQGTQVTVSS | low polyreactivity
QVQLVESGGGLVQAGGSLRLSCAASGRIFNLYAMGWYRPAPGKERELVAAISWSGGSTYYADSVKGRFTITRDNAKNTVYLQMNSLKPEDTAVYYCKVVSTYKHTYDFDYWGQGTQVTLSS | high polyreactivity
QVQLVESGGGLVQAGGSLRLSCAASGRIFNMYAMGWYRQAPGKERELVAAISVSGTRTYYADSVKGRFTISRDNAKNTVYLQMNSLKPEDTAVYYCAADSYGGVWSEHMYYWGQGTQVTVSS | low polyreactivity
QVQLVESGGGLVQAGGSLRLSCAASGRIFNPYAMGWYRQAPGKERELVAAISWSGSTTYYADSVKGRFTISRDNAKNTVYLQMNSLKPEDTAVYYCAAEVVFFGWNYDYWGQGTQVTVSS | high polyreactivity
QVQLVESGGGLVQAGGSLRLSCAASGRIFNQSGMGWYRQAPGKERELVAAIRSGDSTNYADSVKGRFTISRDNAKNTVYLQMNSLKPEDTAVYYCAKDSDYPDYVSTKGDYDYWGQGTQVTVSS | low polyreactivity
QVQLVESGGGLVQAGGSLRLSCAASGRIFNQYGMGWYRQAPGKERELVAAIRSGDSTNYADSVKGRFTISRDNAKNTVYLPMNSLKPEDTAVYYCASDRPGDYAGYDYWGQGTQVTVSS | low polyreactivity
QVQLVESGGGLVQAGGSLRLSCAASGRIFNQYGMGWYRQAPGKERELVAAIRSGDSTNYADSVKGRFTISRDNAKNTVYLQMNSLKPEDTAVYYCARDFSPGSSDPKASISFDHWGQGTQVTVSS | low polyreactivity
QVQLVESGGGLVQAGGSLRLSCAASGRIFNQYGMGWYRQAPGKERELVAAIRSGDSTNYADSVKGRFTISRDNAKNTVYLQRNSLKPEDTAVYYSARDRPGDYAGYDYWGQGTQVTVSS | low polyreactivity
QVQLVESGGGLVQAGGSLRLSCAASGRIFNQYGMGWYSQARGKERELVAAIRSGDSTNYADSVKGRFTISRDNAKNTVYLQMNSLKPEDTAVDYCARDRPGDYAGYDYWGQGTQVTVSS | low polyreactivity
QVQLVESGGGLVQAGGSLRLSCAASGRIFNRNAMGWYRQPPGKERELGAAISRSGSRTYYADSVKWRFTISRDNAKNTVYLQMNSLKPEDTAVYYCAVSGYSPYLYRYGYWGQGTQETVSS | high polyreactivity
QVQLVESGGGLVQAGGSLRLSCAASGRIFNRYAMGWYRQAPGKERELVAAINSSGGSTYYADSVKGRFTISRDNAKNTVYLQMNSLKPEDTAVYYCARVSYHYRTYDYWGQGTQVTVSS | high polyreactivity
QVQLVESGGGLVQAGGSLRLSCAASGRIFNRYTMGWYRPAPGKEREFVAAISSRGGSTYYADSVKGRFTISRDNAKNTVDLQMYSLIPEDTAVYYCNKDYYWPLYAPYDSWGQGTRVTVSS | high polyreactivity
QVQLVESGGGLVQAGGSLRLSCAASGRIFNRYVMGWYRQAPGKERELVAAISVRGASTYYADSVKGRFTISRDNAKNTVYLQMNSLKPEDTAVYYCATAGYRLLDYWGEGTQVTVSS | high polyreactivity
QVQLVESGGGLVQAGGSLRLSCAASGRIFNSNAMGWYRQAPGKERELAAAISKRGGSTFYADSVKGRFTISRDNAKNTVYLQMNSLKPEDTAVYYCNARRLSTGFERYDYWGQGTQVTVSS | high polyreactivity
QVQLVESGGGLVQAGGSLRLSCAASGRIFNSYAMGWYRQAPGKERELVAAISWSGSSTYYADSVKGRFTISRDNAKNTVYLQMNSLKPEDTAVYYCAAGTRYFDYWGQGTQVTVSS | high polyreactivity
QVQLVESGGGLVQAGGSLRLSCAASGRIFNSYAMGWYRQAPGKERELVAAITRGGSTNYADSVKGRFTISRDNAKNTVYLHMNSLKPEDTAVYYCAAVTLFHYRYDYWGQGTQVTVSS | low polyreactivity
